Legend:
[1] = molecular target: T1, Recombinant truncated human his-tag B7-H3 protein (amino acids 1-461 of SEQ ID NO:1 with a carboxy terminal … (human, UniProt Q5ZPR3 29-461)); experiment: SPR (BIAcore 3000), antibody captured by anti-human Fc, his-tagged B7-H3 as analyte from 100 nM, 1:1 model
T1 construct: also called his-tagged B7-H3 protein; recombinant human his-tagged B7-H3 protein
T1 sequence: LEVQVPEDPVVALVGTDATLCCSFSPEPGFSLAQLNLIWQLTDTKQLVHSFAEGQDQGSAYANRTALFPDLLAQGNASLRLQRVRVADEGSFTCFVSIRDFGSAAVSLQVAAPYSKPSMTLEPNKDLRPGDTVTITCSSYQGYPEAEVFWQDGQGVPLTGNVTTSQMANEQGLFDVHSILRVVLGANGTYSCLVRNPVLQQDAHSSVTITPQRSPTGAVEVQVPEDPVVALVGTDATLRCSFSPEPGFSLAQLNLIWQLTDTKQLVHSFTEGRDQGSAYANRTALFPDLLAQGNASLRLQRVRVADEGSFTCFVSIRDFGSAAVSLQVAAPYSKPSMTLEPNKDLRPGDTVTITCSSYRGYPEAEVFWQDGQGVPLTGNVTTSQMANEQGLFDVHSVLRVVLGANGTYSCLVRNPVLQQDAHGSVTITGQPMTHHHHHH

[2] = molecular target: T2, rat B7-H3 antigen protein (Sino Biologicals; Cat. No. 80380-R02H-20) (rat, UniProt Q7TPB4 29-248); experiment: ELISA, antigen coated at 50 ng/well
T2 construct: Bought protein
T2 sequence (looked up): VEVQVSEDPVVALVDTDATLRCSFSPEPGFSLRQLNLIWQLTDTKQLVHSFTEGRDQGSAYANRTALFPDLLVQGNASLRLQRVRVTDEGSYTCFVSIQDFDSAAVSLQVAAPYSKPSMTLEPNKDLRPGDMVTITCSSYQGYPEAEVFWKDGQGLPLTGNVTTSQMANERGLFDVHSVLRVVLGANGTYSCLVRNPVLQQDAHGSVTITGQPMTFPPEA

[3] = molecular target: T3, Human B7-H3 protein (UniProt Q5ZPR3-1) on cells (human, UniProt Q5ZPR3 29-534); experiment: flow cytometry on human osteosarcoma U2OS cells
T3 construct: This is endogenous B7-H3 on U2OS, SK-N-BE(2), A375, A549 and Panc-1 cells, on monocyte-derived dendritic cells and in patient tumour tissue; also called CD276; surface antigen expressed by human cancer cells
T3 sequence: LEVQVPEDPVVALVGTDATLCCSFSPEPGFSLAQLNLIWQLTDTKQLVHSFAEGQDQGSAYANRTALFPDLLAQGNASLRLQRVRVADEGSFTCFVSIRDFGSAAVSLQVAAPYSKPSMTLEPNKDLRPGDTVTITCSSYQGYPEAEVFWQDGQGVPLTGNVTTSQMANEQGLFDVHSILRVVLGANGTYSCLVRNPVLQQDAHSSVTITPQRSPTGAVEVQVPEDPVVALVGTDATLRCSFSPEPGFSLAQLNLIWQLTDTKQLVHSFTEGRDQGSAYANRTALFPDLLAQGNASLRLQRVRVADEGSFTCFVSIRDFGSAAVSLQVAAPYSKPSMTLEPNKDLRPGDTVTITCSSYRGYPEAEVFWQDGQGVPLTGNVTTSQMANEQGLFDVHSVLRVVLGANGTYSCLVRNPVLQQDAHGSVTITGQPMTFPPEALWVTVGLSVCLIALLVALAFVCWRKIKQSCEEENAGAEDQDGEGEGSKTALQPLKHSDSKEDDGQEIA

[4] = molecular target: T1, Recombinant truncated human his-tag …; experiment: SPR (Biacore T200), antibody captured by anti-human Fc, his-tagged B7-H3 as analyte from 100 nM, 1:1 model
human B7-H6 = molecular target: T4, human B7-H6 (human, UniProt Q68D85 25-262); experiment: ELISA, antigen coated at 50 ng/well, antibody serially diluted
T4 construct: Bought protein; also called NCR3LG1
T4 sequence (looked up): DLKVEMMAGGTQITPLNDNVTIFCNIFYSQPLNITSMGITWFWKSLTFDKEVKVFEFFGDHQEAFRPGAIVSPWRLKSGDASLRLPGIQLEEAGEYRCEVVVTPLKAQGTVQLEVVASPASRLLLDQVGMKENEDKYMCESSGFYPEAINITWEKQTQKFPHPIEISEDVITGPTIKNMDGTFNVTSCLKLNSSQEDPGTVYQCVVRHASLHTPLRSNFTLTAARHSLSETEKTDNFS

human B7-H7 = molecular target: T5, human B7-H7 (human, UniProt Q9UM44 23-344); experiment: as above
T5 construct: Bought protein; also called HHLA2
T5 sequence (looked up): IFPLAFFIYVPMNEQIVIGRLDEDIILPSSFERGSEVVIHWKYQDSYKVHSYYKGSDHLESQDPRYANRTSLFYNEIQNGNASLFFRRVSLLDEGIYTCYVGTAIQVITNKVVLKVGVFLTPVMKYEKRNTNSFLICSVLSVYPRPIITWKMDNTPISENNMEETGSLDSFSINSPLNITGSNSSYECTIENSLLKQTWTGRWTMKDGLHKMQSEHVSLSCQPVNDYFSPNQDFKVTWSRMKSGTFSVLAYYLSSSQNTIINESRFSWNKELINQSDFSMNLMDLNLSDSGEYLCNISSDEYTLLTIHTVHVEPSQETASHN

human B7.1 = molecular target: T6, human B7.1 (human, UniProt P33681 35-242); experiment: as above
T6 construct: Bought protein; also called CD80
T6 sequence (looked up): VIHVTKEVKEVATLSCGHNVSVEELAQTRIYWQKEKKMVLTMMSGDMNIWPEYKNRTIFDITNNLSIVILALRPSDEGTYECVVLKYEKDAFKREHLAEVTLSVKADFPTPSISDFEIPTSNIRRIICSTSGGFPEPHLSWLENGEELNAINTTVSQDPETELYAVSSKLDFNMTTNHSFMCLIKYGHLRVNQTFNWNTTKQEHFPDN

human B7.2 = molecular target: T7, human B7.2 (human, UniProt P42081 24-247, limits assumed); experiment: as above
T7 construct: Bought protein; also called CD86
T7 sequence (looked up): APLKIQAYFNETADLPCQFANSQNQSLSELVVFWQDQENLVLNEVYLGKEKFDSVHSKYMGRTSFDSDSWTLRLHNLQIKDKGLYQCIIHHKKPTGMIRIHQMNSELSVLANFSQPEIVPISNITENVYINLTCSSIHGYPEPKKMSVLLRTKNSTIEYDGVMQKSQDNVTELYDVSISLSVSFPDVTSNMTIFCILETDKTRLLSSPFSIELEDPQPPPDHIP

human B7-H1 = molecular target: T8, human B7-H1 (human, UniProt Q9NZQ7 19-239); experiment: as above
T8 construct: Bought protein; also called PD-L1; CD274

human B7-H2 = molecular target: T9, human B7-H2 (human, UniProt O75144 19-258, limits assumed); experiment: as above
T9 construct: Bought protein; also called ICOSL
T9 sequence (looked up): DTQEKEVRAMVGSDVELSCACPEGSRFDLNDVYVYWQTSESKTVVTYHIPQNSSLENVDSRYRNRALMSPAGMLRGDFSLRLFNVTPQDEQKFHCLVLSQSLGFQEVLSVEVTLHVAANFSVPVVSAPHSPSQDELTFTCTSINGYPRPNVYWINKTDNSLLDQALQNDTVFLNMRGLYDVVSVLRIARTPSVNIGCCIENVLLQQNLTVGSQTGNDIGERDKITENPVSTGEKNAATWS

human B7-H4 = molecular target: T10, human B7-H4 (human, UniProt Q7Z7D3 25-258, limits assumed); experiment: as above
T10 construct: Bought protein; also called B7S1; B7x
T10 sequence (looked up): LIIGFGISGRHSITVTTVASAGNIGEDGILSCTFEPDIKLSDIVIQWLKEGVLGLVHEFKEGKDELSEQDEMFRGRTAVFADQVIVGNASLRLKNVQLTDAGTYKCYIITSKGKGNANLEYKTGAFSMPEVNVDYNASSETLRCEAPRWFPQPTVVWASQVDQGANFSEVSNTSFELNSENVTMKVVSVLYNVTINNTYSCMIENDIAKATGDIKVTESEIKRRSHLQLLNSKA

human B7-H5 = molecular target: T11, human B7-H5 (human, UniProt Q9H7M9 33-194); experiment: as above
T11 construct: Bought protein; also called VISTA; GI24

T8 sequence (Q9NZQ7 19-239 limits assumed): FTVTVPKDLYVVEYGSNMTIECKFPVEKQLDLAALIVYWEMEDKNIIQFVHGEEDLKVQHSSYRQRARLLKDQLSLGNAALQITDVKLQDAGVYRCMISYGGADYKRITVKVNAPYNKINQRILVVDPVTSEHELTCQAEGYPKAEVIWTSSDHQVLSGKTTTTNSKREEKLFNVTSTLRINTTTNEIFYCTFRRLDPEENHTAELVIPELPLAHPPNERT

B1: B3-2E3 (antibody, V domains shown)
VH: QVQLVESGGGVVQPGRSLRLSCVASEFTFSSYTIHWVRQAPGKGLEWVAVISHDGSNKYYADSVKGRFTISRDNSKNTLYLQMSSLRAEDTAVYYCAGDRYVYNYYGMDVWGQGTTVTVSS
VL: DIVMTQSPSSLSAYVGDRVTITCRASQDIRTYLAWYQQKPGTAPKLLISGASILRSGVPSRFSGSGSGRDFTLSITSLQPEDFATYYCQQLYSYPPWTFGQGTKVEIK
notes: It was captured by anti-human Fc
Q: Does B1 bind [1]?
A: Result: binds

B2: B3-A6 (antibody, V domains shown)
VH: QVQLQQSGPGLVKPSQTLSLTCAISGDSVSSNSAAWNWIRQSPSRGLEWLGRTYYRSKWYNDYAVSVKSRITINPDTSKNQFSLQLNSVTPEDTAVYYCAREGIAVAALWDWGQGTLVTVSS
VL: QAVLTQPPSASGTPGQRVTISCSGSSSNIGSNYVSWYQQLPGTAPKLLMYSNNHRPSGVPDRFSGSKSGTSASLAISGLRTEDEADYYCAAWDDSLSGQVFGGGTKLTVL
notes: It was captured by anti-human Fc, so it was tested as an antibody with a human Fc
Q: Does B2 bind [1]?
A: Result: binds

B3: B3-D1 (antibody, V domains shown)
VH: EVQLVQSGAELKKPGASVKVSCKASGHTFTSYYIHWVRQAPGQGLEWMGIINPSGDSTSYAQKFQGRVTMTRDTSTSTVYMELSSLTSEDTAVYYCARAIDYGGPYWYLDLWGRGTLVTVSS
VL: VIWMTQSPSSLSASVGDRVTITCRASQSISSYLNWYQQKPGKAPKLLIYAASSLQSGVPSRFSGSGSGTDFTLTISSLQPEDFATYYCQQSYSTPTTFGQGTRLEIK
notes: as for B1
Q: Does B3 bind [1]?
A: Result: binds

B4: B3-2H1 (antibody, V domains shown)
VH: QVQLQQSGAEVEKPGASVEVSCRASGYTFTSYYIHWVRQAPGQGLEWVGMITPLSGGTTYAQKFQGRVTMTRDTSTSTVYMNLSSLRSEDTAVYFCARGGRAVASSFEFWGQGTLVTVSS
VL: QSVLTQPRSVSGSPGQSVTISCTGTSSDVGGYNYVSWYQQHPGKAPKLMIYDVSKRPSGVPDRFSGSKSGNTASLTISGLQAEDEADYYCCSYAGSYTEVFGTGTKVTVL
notes: as for B1
Q: Does B4 bind [1]?
A: Result: binds

B5: Enoblituzumab (B7-H3 Macrogenics; MGA271; MG-B7-H3) (antibody, human IgG1, kappa, V domains shown)
VH: EVQLVESGGGLVQPGGSLRLSCAASGFTFSSFGMHWVRQAPGKGLEWVAYISSDSSAIYYADTVKGRFTISRDNAKNSLYLQMNSLRDEDTAVYYCGRGRENIYYGSRLDYWGQGTTVTVSS
VL: DIQLTQSPSFLSASVGDRVTITCKASQNVDTNVAWYQQKPGKAPKALIYSASYRYSGVPSRFSGSGSGTDFTLTISSLQPEDFATYYCQQYNNYPFTFGQGTKLEIKR
notes: also called B7-H3 MG; Macrogenics' B7-H3
Q: Does B5 bind [2]?
A: Result: binds

Q: Does B5 bind [3]?
A: Result: binds

Q: Does B5 bind [4]?
A: Result: binds

B6: B3-4F7 (antibody, V domains shown)
VH: QVQLVQSGAEVKKPGASVKVSCKASGYTFTSYGISWVRQAPGQGLEWMGWISAYNGNTNYAQKLQGRVTMTTDTSTSTAYMELRSLRSDDTAVYYCARDGYYGSGSHPWGQGTLVTVSS
VL: QSVVTQPPSVSGAPGQRVTISCTGNSSNIGAGYDVHWYQQLPGTAPKLLIYGNSNRPSGIPDRFSGSKSGTSATLGITGLQTGDEADYYCGTWDSSLSAGVFGTGTKVTVL
notes: as for B1
Q: Does B6 bind [1]?
A: Result: binds

B7: anti-B7-H3 antibody (VA clone) (antibody, V domains shown)
VH: QVQLVQSGAEVKKPGASVKVSCKASGYTFTDSYMHWVRQAPGQGLEWMGWISPRTGGTDYAQKFQGRVTMTRDTSISTAYMELSRLRSDDTAVYYCARGSSRGNDYWGQGTLVTVSS
VL: QSVLTQPASVSGSPGQSITISCTGTGSDVGGYNYVSWYQQHPGKAPKLIIYDVTKRPSGFSNRFSGSKSGNTASLTISGLQAEDEADYYCSSYTSRRTYVFGTGTKLTVL
notes: It was tested as a fully human IgG ('IgG protein', captured by anti-human Fc); also called B7-H3-VA; B7-H3 VA
Q: Does B7 bind [2]?
A: Result: binds

Q: Does B7 bind (human B7-H6)?
A: Result: no binding

Q: Does B7 bind (human B7-H7)?
A: Result: no binding

Q: Does B7 bind (human B7.1)?
A: Result: no binding

Q: Does B7 bind (human B7.2)?
A: Result: no binding

Q: Does B7 bind (human B7-H1)?
A: Result: no binding

Q: Does B7 bind (human B7-H2)?
A: Result: no binding

Q: Does B7 bind (human B7-H4)?
A: Result: no binding

Q: Does B7 bind (human B7-H5)?
A: Result: no binding

B8: anti-B7-H3 antibody (VA LALA clone) (antibody, V domains shown)
VH: QVQLVQSGAEVKKPGASVKVSCKASGYTFTDSYMHWVRQAPGQGLEWMGWISPRTGGTDYAQKFQGRVTMTRDTSISTAYMELSRLRSDDTAVYYCARGSSRGNDYWGQGTLVTVSS
VL: QSVLTQPASVSGSPGQSITISCTGTGSDVGGYNYVSWYQQHPGKAPKLIIYDVTKRPSGFSNRFSGSKSGNTASLTISGLQAEDEADYYCSSYTSRRTYVFGTGTKLTVL
notes: also called B7-H3-VA LALA; B7-H3-VA-LALA
Q: Does B8 bind (human B7-H6)?
A: Result: no binding

Q: Does B8 bind (human B7-H7)?
A: Result: no binding

Q: Does B8 bind (human B7.1)?
A: Result: no binding

Q: Does B8 bind (human B7.2)?
A: Result: no binding

Q: Does B8 bind (human B7-H1)?
A: Result: no binding

Q: Does B8 bind (human B7-H2)?
A: Result: no binding

Q: Does B8 bind (human B7-H4)?
A: Result: no binding

Q: Does B8 bind (human B7-H5)?
A: Result: no binding
